B1: M. tuberculosis Ku R262A (natural protein)
chain: MRAIWTGSIAFGLVNVPVKVYSATADHDIRFHQVHAKDNGRIRYKRVCEACGEVVDYRDLARAYESGDGQMVAITDDDIASLPEERSREIEVLEFVPAADVDPMMFDRSYFLEPDSKSSKSYVLLAKTLAETDRMAIVHFTLRNKTRLAALRVKDFGKREVMMVHTLLWPDEIRDPDFPVLDQKVEIKPAELKMAGQVVDSMADDFNPDRYHDTYQEQLQELIDTKLEGGQAFTAEDQPRLLDEPEDVSDLLAKLEASVKAASKANSNVPTPP
B2: M. tuberculosis Ku E246A (natural protein)
chain: MRAIWTGSIAFGLVNVPVKVYSATADHDIRFHQVHAKDNGRIRYKRVCEACGEVVDYRDLARAYESGDGQMVAITDDDIASLPEERSREIEVLEFVPAADVDPMMFDRSYFLEPDSKSSKSYVLLAKTLAETDRMAIVHFTLRNKTRLAALRVKDFGKREVMMVHTLLWPDEIRDPDFPVLDQKVEIKPAELKMAGQVVDSMADDFNPDRYHDTYQEQLQELIDTKLEGGQAFTAEDQPRLLDEPADVSDLLAKLEASVKARSKANSNVPTPP
B3: M. tuberculosis Ku N266A (natural protein)
chain: MRAIWTGSIAFGLVNVPVKVYSATADHDIRFHQVHAKDNGRIRYKRVCEACGEVVDYRDLARAYESGDGQMVAITDDDIASLPEERSREIEVLEFVPAADVDPMMFDRSYFLEPDSKSSKSYVLLAKTLAETDRMAIVHFTLRNKTRLAALRVKDFGKREVMMVHTLLWPDEIRDPDFPVLDQKVEIKPAELKMAGQVVDSMADDFNPDRYHDTYQEQLQELIDTKLEGGQAFTAEDQPRLLDEPEDVSDLLAKLEASVKARSKAASNVPTPP
B4: M. tuberculosis Ku V248A (natural protein)
chain: MRAIWTGSIAFGLVNVPVKVYSATADHDIRFHQVHAKDNGRIRYKRVCEACGEVVDYRDLARAYESGDGQMVAITDDDIASLPEERSREIEVLEFVPAADVDPMMFDRSYFLEPDSKSSKSYVLLAKTLAETDRMAIVHFTLRNKTRLAALRVKDFGKREVMMVHTLLWPDEIRDPDFPVLDQKVEIKPAELKMAGQVVDSMADDFNPDRYHDTYQEQLQELIDTKLEGGQAFTAEDQPRLLDEPEDASDLLAKLEASVKARSKANSNVPTPP
B5: M. tuberculosis Ku E256A (natural protein)
chain: MRAIWTGSIAFGLVNVPVKVYSATADHDIRFHQVHAKDNGRIRYKRVCEACGEVVDYRDLARAYESGDGQMVAITDDDIASLPEERSREIEVLEFVPAADVDPMMFDRSYFLEPDSKSSKSYVLLAKTLAETDRMAIVHFTLRNKTRLAALRVKDFGKREVMMVHTLLWPDEIRDPDFPVLDQKVEIKPAELKMAGQVVDSMADDFNPDRYHDTYQEQLQELIDTKLEGGQAFTAEDQPRLLDEPEDVSDLLAKLAASVKARSKANSNVPTPP
B6: M. tuberculosis Ku, wild type, His-tagged and RED-tris-NTA labelled (MST ligand) (natural protein)
chain: MRAIWTGSIAFGLVNVPVKVYSATADHDIRFHQVHAKDNGRIRYKRVCEACGEVVDYRDLARAYESGDGQMVAITDDDIASLPEERSREIEVLEFVPAADVDPMMFDRSYFLEPDSKSSKSYVLLAKTLAETDRMAIVHFTLRNKTRLAALRVKDFGKREVMMVHTLLWPDEIRDPDFPVLDQKVEIKPAELKMAGQVVDSMADDFNPDRYHDTYQEQLQELIDTKLEGGQAFTAEDQPRLLDEPEDVSDLLAKLEASVKARSKANSNVPTPP
B7: M. tuberculosis Ku S263A (natural protein)
chain: MRAIWTGSIAFGLVNVPVKVYSATADHDIRFHQVHAKDNGRIRYKRVCEACGEVVDYRDLARAYESGDGQMVAITDDDIASLPEERSREIEVLEFVPAADVDPMMFDRSYFLEPDSKSSKSYVLLAKTLAETDRMAIVHFTLRNKTRLAALRVKDFGKREVMMVHTLLWPDEIRDPDFPVLDQKVEIKPAELKMAGQVVDSMADDFNPDRYHDTYQEQLQELIDTKLEGGQAFTAEDQPRLLDEPEDVSDLLAKLEASVKARAKANSNVPTPP
B8: M. tuberculosis Ku, wild type, His-tag removed by TEV (MST analyte) (natural protein)
chain: MRAIWTGSIAFGLVNVPVKVYSATADHDIRFHQVHAKDNGRIRYKRVCEACGEVVDYRDLARAYESGDGQMVAITDDDIASLPEERSREIEVLEFVPAADVDPMMFDRSYFLEPDSKSSKSYVLLAKTLAETDRMAIVHFTLRNKTRLAALRVKDFGKREVMMVHTLLWPDEIRDPDFPVLDQKVEIKPAELKMAGQVVDSMADDFNPDRYHDTYQEQLQELIDTKLEGGQAFTAEDQPRLLDEPEDVSDLLAKLEASVKARSKANSNVPTPP
B9: M. tuberculosis Ku K260A (natural protein)
chain: MRAIWTGSIAFGLVNVPVKVYSATADHDIRFHQVHAKDNGRIRYKRVCEACGEVVDYRDLARAYESGDGQMVAITDDDIASLPEERSREIEVLEFVPAADVDPMMFDRSYFLEPDSKSSKSYVLLAKTLAETDRMAIVHFTLRNKTRLAALRVKDFGKREVMMVHTLLWPDEIRDPDFPVLDQKVEIKPAELKMAGQVVDSMADDFNPDRYHDTYQEQLQELIDTKLEGGQAFTAEDQPRLLDEPEDVSDLLAKLEASVAARSKANSNVPTPP
B10: M. tuberculosis Ku S258A (natural protein)
chain: MRAIWTGSIAFGLVNVPVKVYSATADHDIRFHQVHAKDNGRIRYKRVCEACGEVVDYRDLARAYESGDGQMVAITDDDIASLPEERSREIEVLEFVPAADVDPMMFDRSYFLEPDSKSSKSYVLLAKTLAETDRMAIVHFTLRNKTRLAALRVKDFGKREVMMVHTLLWPDEIRDPDFPVLDQKVEIKPAELKMAGQVVDSMADDFNPDRYHDTYQEQLQELIDTKLEGGQAFTAEDQPRLLDEPEDVSDLLAKLEAAVKARSKANSNVPTPP

How the values were obtained:
SEC-MALS = molecular target: the molecule itself; assay: SEC-MALS
[1] = molecular target: M. tuberculosis LigD, wild type, His-tag removed by TEV (MST analyte) (M. tuberculosis, UniProt P9WNV3 1-759); assay: MST
[2] = molecular target: M. tuberculosis LigD V194D (M. tuberculosis, UniProt P9WNV3 1-759, V194D); assay: MST
[3] = molecular target: M. tuberculosis LigD K579E (M. tuberculosis, UniProt P9WNV3 1-759, K579E); assay: MST
[4] = molecular target: M. tuberculosis LigD R198E (M. tuberculosis, UniProt P9WNV3 1-759, R198E); assay: MST
[5] = molecular target: M. tuberculosis LigD D162R (M. tuberculosis, UniProt P9WNV3 1-759, D162R); assay: MST
[6] = molecular target: M. tuberculosis LigD L580E (M. tuberculosis, UniProt P9WNV3 1-759, L580E); assay: MST

Binder | stoichiometry N (SEC-MALS) | binding result [1] | other results
B1 | 2 | binds | 
B2 | 2 | binds | 
B3 | 2 |  | 
B4 | 2 | binds | 
B5 | 2 | binds | 
B6 |  |  | Kd [1]: 850 nM
B7 | 2 | binds | 
B8 |  |  | binding result [2]: binds; Kd [3]: 510 nM; binding result [4]: binds; binding result [5]: binds; Kd [6]: 1270 nM
B9 | 2 | binds | 
B10 | 2 | binds | 

Reference: doi:10.64898/2025.12.12.693941 (bioRxiv, 2025)
